# B1: Mps1-phosphorylated scBub1_(449–530) fragment (domain or fragment)
# chain: SRSPTVTAFSKDAINEVFSMFNQHYSTPGALLDGDDTTTSKFNVFENFTQEFTAKNIEDLTEVKDPKQETVSQQTTSTNETN
# modifications: phosphothreonine at 453, phosphothreonine at 455, phosphoserine at 458 (mass spectrometry; co-expressed with scMps1)
# Molecular target: scMad1^E–scMad2 complex (S. cerevisiae) (UniProt P40957)
# Experiment: ITC; 20°C; 25 mM HEPES pH 7.5, 150 mM NaCl; scMad1 proteins (20 µM) in the cell; scBub1 phospho-peptides or phosphorylated scBub1_(449–530) (300 µM) injected
# Chain of scMad1^E–scMad2 complex (S. cerevisiae) (P40957 whole entry, chain 1 of 2): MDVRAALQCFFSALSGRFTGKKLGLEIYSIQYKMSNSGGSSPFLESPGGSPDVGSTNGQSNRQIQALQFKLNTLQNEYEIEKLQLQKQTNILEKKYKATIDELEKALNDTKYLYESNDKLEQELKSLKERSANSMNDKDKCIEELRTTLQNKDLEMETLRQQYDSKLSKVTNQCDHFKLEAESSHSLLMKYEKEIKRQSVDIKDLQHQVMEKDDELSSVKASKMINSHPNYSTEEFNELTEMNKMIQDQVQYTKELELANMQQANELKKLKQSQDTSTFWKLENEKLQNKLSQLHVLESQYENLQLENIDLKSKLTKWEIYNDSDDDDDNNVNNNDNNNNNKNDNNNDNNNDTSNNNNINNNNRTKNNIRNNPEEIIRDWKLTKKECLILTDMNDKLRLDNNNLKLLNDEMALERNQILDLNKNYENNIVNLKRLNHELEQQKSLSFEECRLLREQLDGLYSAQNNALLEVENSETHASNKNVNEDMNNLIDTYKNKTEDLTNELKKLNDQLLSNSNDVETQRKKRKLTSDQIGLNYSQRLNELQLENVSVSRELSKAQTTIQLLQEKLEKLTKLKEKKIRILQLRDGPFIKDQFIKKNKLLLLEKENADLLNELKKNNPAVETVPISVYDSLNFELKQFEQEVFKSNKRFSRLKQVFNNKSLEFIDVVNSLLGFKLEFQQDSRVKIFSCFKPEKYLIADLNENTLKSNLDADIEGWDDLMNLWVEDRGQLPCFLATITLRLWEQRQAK
# Chain of scMad1^E–scMad2 complex (S. cerevisiae) (P40958 whole entry, chain 2 of 2, further chain): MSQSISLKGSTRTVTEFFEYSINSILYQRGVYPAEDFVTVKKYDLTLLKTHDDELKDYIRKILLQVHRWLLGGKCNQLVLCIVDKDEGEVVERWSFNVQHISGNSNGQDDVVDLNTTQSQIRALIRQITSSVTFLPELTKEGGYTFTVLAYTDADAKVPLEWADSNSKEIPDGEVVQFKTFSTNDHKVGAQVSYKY
binder,measurement,value
B1,Kd,2200 nM

# Source: article PMC5268738, “A sequential multi-target Mps1 phosphorylation cascade promotes spindle checkpoint signaling” (eLife, 2017)
